US20180362645A1 (Amgen, published 2018)
Substitutions are numbered along the chain they refer to. Values joined by “and” are separate entries in the source; they are usually repeats but may differ in a detail not shown here. Equal values may be shown once. Where no end group is shown, it is not given here.

Key:
[1] = molecular target: T1, human pituitary adenylate cyclase-activating polypeptide type I receptor (human, UniProt P41586 21-468); test: KinExA, CHOK1/huPac1 whole cells
T1 construct: whole, on cells; On SH-SY5Y or recombinant CHO cells (cAMP assay), as membranes of hPAC-1 AequoScreen CHO cells (radioligand assay) and on CHOK1/huPac1 whole cells (KinExA); also called human PAC1; hPAC1
T1 sequence (looked up): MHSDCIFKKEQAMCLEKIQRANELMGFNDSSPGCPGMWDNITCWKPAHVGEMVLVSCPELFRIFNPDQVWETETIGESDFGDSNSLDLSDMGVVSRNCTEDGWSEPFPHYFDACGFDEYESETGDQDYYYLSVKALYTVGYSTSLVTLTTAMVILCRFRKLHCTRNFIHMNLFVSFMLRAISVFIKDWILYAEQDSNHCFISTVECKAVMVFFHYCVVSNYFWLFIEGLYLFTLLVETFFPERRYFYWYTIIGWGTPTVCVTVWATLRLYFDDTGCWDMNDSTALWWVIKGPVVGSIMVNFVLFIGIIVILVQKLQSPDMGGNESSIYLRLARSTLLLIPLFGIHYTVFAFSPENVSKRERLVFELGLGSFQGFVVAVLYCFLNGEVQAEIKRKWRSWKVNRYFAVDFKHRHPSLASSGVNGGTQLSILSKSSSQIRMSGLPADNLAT
Protocol: Binding of anti-Pac1 antibody with CHOK1/huPac1 cells were tested on KinExA. […] Samples containing anti-Pac1 antibody and whole cells were incubated with rotation at room temperature for 4 hours before 5-minute 220-g centrifugation at 4° C. to separate the whole cells and anti-Pac1 antibody-cell complexes from unbound anti-Pac1 antibody. The supernatants containing free anti-Pac1 antibody were filtered through 0.22 μm filter before loading to the goat-anti-huFc-coated beads on KinExA. […] The binding signal is proportional to the concentration of free anti-Pac1 antibody in solution at each cell density. Equilibrium dissociation constant (KD) was estimated by n-curve analysis in KinExA™ Pro software (Sapidyne Instruments, Inc., Boise, Id.).

[2] = molecular target: T1, human pituitary adenylate …; test: radioligand competition, hPAC1 CHO membranes; competitor 125I-39A
Protocol: (§1) The plates were incubated at room temperature for 2 hours with shaking at 60 rpm, and then the contents of each well were filtered over 0.5% polyethyleneimine (PEI)-treated (for at least two hours) GF/C 96-well filter plates. The GF/C filter plates were washed five times with ice-cold 50 mM Tris, pH 7.5 and dried in an oven at 55° C. for 1 hour. The bottoms of the GF/C plates were then sealed. 40 μl Microscint™ 20 was added to each well, the tops of the GF/C plates were sealed with TopSeal™-A (a press-on adhesive sealing film), and the GF/C plates were counted with TopCount NXT (Packard). The data were analyzed using Prizm (GraphPad Software Inc.)

[3] = molecular target: T1, human pituitary adenylate …; test: radioligand competition, hPAC1 CHO membranes; competitor 125I-14A
Protocol: as §1

[4] = molecular target: T1, human pituitary adenylate …; test: radioligand competition, hPAC1 CHO membranes; competitor 125I-26A
Protocol: as §1

cyno PAC1 = cyno PAC1 (cynomolgus); test: cell-based or functional assay
human VPAC2 = molecular target: T2, human VPAC2 (human, UniProt P41587 24-438); test: cell-based or functional assay
T2 sequence (looked up): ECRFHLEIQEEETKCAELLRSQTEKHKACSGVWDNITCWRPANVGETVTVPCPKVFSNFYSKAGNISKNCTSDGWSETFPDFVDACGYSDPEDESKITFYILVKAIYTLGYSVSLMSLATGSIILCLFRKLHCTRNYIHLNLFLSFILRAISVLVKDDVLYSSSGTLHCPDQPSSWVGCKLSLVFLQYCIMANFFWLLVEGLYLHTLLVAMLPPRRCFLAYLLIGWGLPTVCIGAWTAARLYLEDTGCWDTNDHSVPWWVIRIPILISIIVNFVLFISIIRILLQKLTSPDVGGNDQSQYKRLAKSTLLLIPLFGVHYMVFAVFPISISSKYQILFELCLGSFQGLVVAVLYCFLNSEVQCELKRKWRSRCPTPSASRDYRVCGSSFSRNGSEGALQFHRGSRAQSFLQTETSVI

human VPAC1 = molecular target: T3, human VPAC1 (human, UniProt P32241 31-457); test: cell-based or functional assay
T3 sequence (looked up): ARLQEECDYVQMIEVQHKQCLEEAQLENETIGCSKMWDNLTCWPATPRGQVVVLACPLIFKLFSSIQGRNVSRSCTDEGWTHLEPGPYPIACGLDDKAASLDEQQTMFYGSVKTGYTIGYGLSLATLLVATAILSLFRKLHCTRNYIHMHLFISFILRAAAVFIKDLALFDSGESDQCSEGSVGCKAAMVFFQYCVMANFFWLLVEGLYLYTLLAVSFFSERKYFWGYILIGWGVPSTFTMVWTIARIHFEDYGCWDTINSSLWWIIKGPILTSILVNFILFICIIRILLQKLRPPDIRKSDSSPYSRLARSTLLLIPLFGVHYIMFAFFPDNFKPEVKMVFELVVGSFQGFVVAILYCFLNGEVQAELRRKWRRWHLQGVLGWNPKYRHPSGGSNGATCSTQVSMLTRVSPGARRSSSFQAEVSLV

[5] = molecular target: T1, human pituitary adenylate …; test: radioligand competition, hPAC1 CHO membranes; competitor 125I-29B
Protocol: as §1

[6] = molecular target: T1, human pituitary adenylate …; test: radioligand competition, hPAC1 CHO membranes; competitor 125I-39B
Protocol: as §1

[7] = molecular target: T1, human pituitary adenylate …; test: radioligand competition, hPAC1 CHO membranes; competitor 125I-14B
Protocol: as §1

[8] = molecular target: T1, human pituitary adenylate …; test: radioligand competition, hPAC1 CHO membranes; competitor 125I-26B
Protocol: as §1

[9] = molecular target: T1, human pituitary adenylate …; test: radioligand competition, hPAC1 CHO membranes; competitor 125I-01B
Protocol: as §1

[10] = molecular target: T1, human pituitary adenylate …; test: radioligand competition, hPAC1 CHO membranes; competitor 125I-29A
Protocol: as §1

[11] = molecular target: T1, human pituitary adenylate …; test: radioligand competition, hPAC1 CHO membranes; competitor 125I-28A
Protocol: as §1

VPAC2 = molecular target: T4, VPAC2; test: cell-based or functional assay
T4 sequence (P41587 whole entry, species assumed, looked up): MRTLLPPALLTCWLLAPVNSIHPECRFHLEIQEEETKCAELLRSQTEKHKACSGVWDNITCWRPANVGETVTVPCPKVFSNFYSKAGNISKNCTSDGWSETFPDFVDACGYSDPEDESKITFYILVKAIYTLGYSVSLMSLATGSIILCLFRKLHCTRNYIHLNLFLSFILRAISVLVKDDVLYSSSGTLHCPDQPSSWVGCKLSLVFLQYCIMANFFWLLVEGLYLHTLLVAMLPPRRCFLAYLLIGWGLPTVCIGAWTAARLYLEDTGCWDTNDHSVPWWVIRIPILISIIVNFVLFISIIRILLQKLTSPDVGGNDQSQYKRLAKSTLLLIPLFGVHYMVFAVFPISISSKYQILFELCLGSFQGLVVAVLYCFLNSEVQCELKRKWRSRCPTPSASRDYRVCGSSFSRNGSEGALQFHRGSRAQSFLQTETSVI

B1: 38A (antibody, human IgG2, kappa, V domains shown)
VH: QVQLQESGPGLVKPSQTLSLTCTVSGGSISRGGYYWSWIRQHPGKGLEWIGYIYYSGNTYYNPSLKSRVIISGDTSKNQLSLKLRSVTAADTAVYYCARGGAARGMDVWGQGTTVTVSS
VL: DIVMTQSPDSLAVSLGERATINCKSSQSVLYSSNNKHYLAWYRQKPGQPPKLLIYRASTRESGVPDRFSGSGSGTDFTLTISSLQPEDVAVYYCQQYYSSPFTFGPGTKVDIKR
notes: also called LC-18 and HC-50
Q: Which Kd [1] does the source give for B1 here?
A: 0.016 nM

Q: And the Ki [2]?
A: 0.11 nM

Q: What about the Ki [3] of the same binder?
A: 0.07 nM

Q: What about the Ki [4] of the same binder?
A: 0.07 nM

B2: 26B (antibody, human IgG1, kappa, N297G)
heavy: not shown
light: DIQLTQSPSFLSASVGDRVTITCRASQSIGRSLHWYQQKPGKAPKLLIKYASQSLSGVPSRFSGSGSGTEFTLTISSLQPEDFATYYCHQSSRLPFTFGPGTKVDIKRTVAAPSVFIFPPSDEQLKSGTASVVCLLNNFYPREAKVQWKVDNALQSGNSQESVTEQDSKDSTYSLSSTLTLSKADYEKHKVYACEVTHQGLSSPVTKSFNRGEC
Q: For B2, which “cyno PAC1 IC50 (cAMP assay)” value (cyno PAC1) is on record?
A: 1.3 nM

Q: And the “hVPAC2 IC50 (cAMP assay)” value (human VPAC2)?
A: > 10000 nM

Q: And the “hVPAC1 IC50 (cAMP assay)” value (human VPAC1)?
A: > 10000 nM

B3: 14B (antibody, human IgG1, kappa, N297G)
heavy: not shown
light: EIVLTQSPATLSLSPGERATLSCRASQSVGRSLHWYQQKPGQAPRLLIKYASQSLSGIPARFSGSGSGTDFTLTISSLEPEDFAVYYCHQSSRLPFTFGPGTKVDIKRTVAAPSVFIFPPSDEQLKSGTASVVCLLNNFYPREAKVQWKVDNALQSGNSQESVTEQDSKDSTYSLSSTLTLSKADYEKHKVYACEVTHQGLSSPVTKSFNRGEC
Q: With B3 as the binder, how does the “cyno PAC1 IC50 (cAMP assay)” value (cyno PAC1) read?
A: 0.6 nM

Q: What about the “hVPAC2 IC50 (cAMP assay)” value (human VPAC2) of the same binder?
A: > 10000 nM

Q: What about the “hVPAC1 IC50 (cAMP assay)” value (human VPAC1) of the same binder?
A: > 10000 nM

B4: 39A (antibody, human IgG2, kappa)
heavy: QVQLQESGPGLVKPSQTLSLTCTVSGGSISSGGYYWSWIRQHPGKGLEWIGYIYYSGNTYYNPSLKSRVTISGDTSKNQFSLKLRSVTAADTAVYYCTRGGAARGMDVWGQGTTVTVSSASTKGPSVFPLAPCSRSTSESTAALGCLVKDYFPEPVTVSWNSGALTSGVHTFPAVLQSSGLYSLSSVVTVPSSNFGTQTYTCNVDHKPSNTKVDKTVERKCCVECPPCPAPPVAGPSVFLFPPKPKDTLMISRTPEVTCVVVDVSHEDPEVQFNWYVDGVEVHNAKTKPREEQFNSTFRVVSVLTVVHQDWLNGKEYKCKVSNKGLPAPIEKTISKTKGQPREPQVYTLPPSREEMTKNQVSLTCLVKGFYPSDIAVEWESNGQPENNYKTTPPMLDSDGSFFLYSKLTVDKSRWQQGNVFSCSVMHEALHNHYTQKSLSLSPGK
light: not shown
notes: also called 39A lot1; 39A lot2
Q: What does the source list for B4?
A: Ki [5]: 0.08 nM and 0.14 nM; Kd [1]: 0.036 nM; Ki [2]: 0.16 nM; Ki [6]: 0.2 nM and 0.18 nM; Ki [3]: 0.2 nM; Ki [7]: 0.24 nM and 0.43 nM; Ki [4]: 0.13 nM; Ki [8]: 0.17 nM and 0.14 nM; Ki [9]: 0.3 nM and 0.15 nM

B5: 03A (antibody, human IgG2, kappa, V domains shown)
VH: QVQLVESGGGVVQPGRSLRLSCAASGFTFSYYAIHWVRQAPGKGLEWVAVISYDGSNKYYADSVKGRFTISRDNSKNTLYLQMNSLRAEDTAVYYCARGYDLLTGYPDYWGQGTLVTVSS
VL: DIQLTQSPSFLSASVGDRVTITCRASQSIGRSLHWYQQKPGKAPKLLIKYASQSLSGVPSRFSGSGSGTEFTLTISSLQPEDFATYYCHQSSRLPFTFGPGTKVDIKR
notes: also called LC-03 and HC-03
Q: With B5 as the binder, how does the Kd [1] read?
A: 0.126 nM

Q: And the Ki [10]?
A: 0.14 nM

Q: And the Ki [11]?
A: 0.01 nM

B6: 28A (antibody, human IgG2, kappa, V domains shown)
VH: B5 VH with Y31R, I34M, P41S, Q82L, N84S, Y94F, L102I
VL: EIVLTQSPDFQSVTPKEKVTITCRASQSIGRSLHWYQQKPDQSPKLLFKYASQSLSGVPSRFSGSGSGTDFTLTINSLEAEDAATYYCHQSSRLPFTFGPGTKVDIKR
notes: also called LC-10 and HC-39
Q: With B6 as the binder, how does the Ki [10] read?
A: 0.04 nM

Q: What about the Ki [11] of the same binder?
A: < 0.01 nM

B7: 29A (antibody, human IgG2, kappa)
heavy: QVQLVESGGGVVQPGRSLRLSCAASGFTFSRYAMHWVRQASGKGLEWVAVISYDGSNKYYADSVKGRFTISRDNSKNTLYLLMSSLRAEDTAVFYCARGYDILTGYPDYWGQGTLVTVSSASTKGPSVFPLAPCSRSTSESTAALGCLVKDYFPEPVTVSWNSGALTSGVHTFPAVLQSSGLYSLSSVVTVPSSNFGTQTYTCNVDHKPSNTKVDKTVERKCCVECPPCPAPPVAGPSVFLFPPKPKDTLMISRTPEVTCVVVDVSHEDPEVQFNWYVDGVEVHNAKTKPREEQFNSTFRVVSVLTVVHQDWLNGKEYKCKVSNKGLPAPIEKTISKTKGQPREPQVYTLPPSREEMTKNQVSLTCLVKGFYPSDIAVEWESNGQPENNYKTTPPMLDSDGSFFLYSKLTVDKSRWQQGNVFSCSVMHEALHNHYTQKSLSLSPGK
light: B2 light with I48F
notes: also called LC-11 and HC-39
Q: B7 was tested. Which Ki [5] did it give?
A: 0.09 nM

Q: And the Kd [1]?
A: 0.013 nM

Q: What about the Ki [2] of the same binder?
A: 0.06 nM

Q: What about the Ki [6] of the same binder?
A: 0.08 nM

Q: And the Ki [3]?
A: 0.07 nM

Q: What about the Ki [7] of the same binder?
A: 0.1 nM

Q: And the Ki [10]?
A: 0.04 nM

Q: What about the Ki [4] of the same binder?
A: 0.03 nM

Q: What about the Ki [8] of the same binder?
A: 0.11 nM

Q: And the Ki [9]?
A: 0.13 nM

B8: 05A (antibody, human IgG2, kappa, V domains shown)
VH: QVQLVESGGGVVQPGRSLRLSCAASGFTFSRFAMHWVRRAPGKGLEWVAVISYDGGNKYYAESVKGRFTISRDNSKNTLNLLMNSLRAEDTALFYCARGYDVLTGYPDYWGQGTLVTVSS
VL: B5 VL
notes: also called LC-05 and HC-06
Q: Which Ki [10] does the source give for B8 here?
A: 0.03 nM

Q: What about the Ki [11] of the same binder?
A: 0.02 nM

Q: With HSDGIFTDSYSRYRKQMAVKKYLAAVLGKRYKQRVKNK (ligand, UniProt P18509 132-169, looked up, ends and bridges not checked) [PACAP38] as the binder, how does the “VPAC2 EC50 (agonist activity)” value (VPAC2) read?
A: 0.06 nM
